This assay concerns the target hsc70 (constitutively expressed form of hsp70) (UniProt P11142). Description: cell-based or functional assay.

Sequence of hsc70 (constitutively expressed form of hsp70) (P11142 whole entry): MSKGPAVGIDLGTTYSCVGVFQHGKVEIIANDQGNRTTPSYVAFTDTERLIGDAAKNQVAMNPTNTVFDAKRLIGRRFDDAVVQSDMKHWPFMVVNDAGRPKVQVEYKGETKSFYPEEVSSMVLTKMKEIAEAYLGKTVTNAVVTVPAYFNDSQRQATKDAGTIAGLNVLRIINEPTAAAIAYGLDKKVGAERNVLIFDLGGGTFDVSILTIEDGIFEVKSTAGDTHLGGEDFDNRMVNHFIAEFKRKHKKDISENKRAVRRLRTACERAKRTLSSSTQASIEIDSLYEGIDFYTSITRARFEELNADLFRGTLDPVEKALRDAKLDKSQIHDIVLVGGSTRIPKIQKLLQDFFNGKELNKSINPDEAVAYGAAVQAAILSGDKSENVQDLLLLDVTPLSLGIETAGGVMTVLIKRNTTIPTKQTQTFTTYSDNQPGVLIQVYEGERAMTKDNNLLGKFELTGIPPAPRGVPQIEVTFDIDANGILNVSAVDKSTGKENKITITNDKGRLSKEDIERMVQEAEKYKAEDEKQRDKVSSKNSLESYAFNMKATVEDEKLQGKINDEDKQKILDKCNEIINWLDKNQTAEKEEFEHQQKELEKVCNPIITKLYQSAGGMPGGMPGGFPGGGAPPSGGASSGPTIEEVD

For the substance “His-UBP (histidine tagged-UBP) (from UniProt O43765 1-313)”, the decrease in hs70-dependent refolding of luciferase was determined as 30%.

These data come from US20050233963A1.
